Source: PMC3167817, “A Neutralizing RNA Aptamer against EGFR Causes Selective Apoptotic Cell Death”

Columns and labels:
[1] = target: EC-EGFR (soluble extracellular domain), disulfide-linked homodimer (human, UniProt P00533 25-645); experiment: filter binding; Filter binding: 1 nM radiolabeled RNA, PBS + 0.01% BSA, 15 min, 37 C (5 mM DTT for monomer); CL4sc background subtracted; pull-down: 200 nM aptamer on A549 cells 30 min RT, lysis in 10 mM Tris-HCl pH 7.5, 200 mM NaCl, 5 mM EDTA, 0.1% Triton X-100; details: protein: commercial, chain copies: 2
[2] = target: EC-ErbB3 (soluble extracellular domain), disulfide-linked homodimer (human, UniProt P21860 20-643); experiment: filter binding; 20 and 40 nM protein; Filter binding: 1 nM radiolabeled RNA, PBS + 0.01% BSA, 15 min, 37 C (5 mM DTT for monomer); CL4sc background subtracted; pull-down: 200 nM aptamer on A549 cells 30 min RT, lysis in 10 mM Tris-HCl pH 7.5, 200 mM NaCl, 5 mM EDTA, 0.1% Triton X-100; details: protein: commercial, chain copies: 2
Chain of EC-ErbB3 (soluble extracellular domain), disulfide-linked homodimer (P21860 20-643): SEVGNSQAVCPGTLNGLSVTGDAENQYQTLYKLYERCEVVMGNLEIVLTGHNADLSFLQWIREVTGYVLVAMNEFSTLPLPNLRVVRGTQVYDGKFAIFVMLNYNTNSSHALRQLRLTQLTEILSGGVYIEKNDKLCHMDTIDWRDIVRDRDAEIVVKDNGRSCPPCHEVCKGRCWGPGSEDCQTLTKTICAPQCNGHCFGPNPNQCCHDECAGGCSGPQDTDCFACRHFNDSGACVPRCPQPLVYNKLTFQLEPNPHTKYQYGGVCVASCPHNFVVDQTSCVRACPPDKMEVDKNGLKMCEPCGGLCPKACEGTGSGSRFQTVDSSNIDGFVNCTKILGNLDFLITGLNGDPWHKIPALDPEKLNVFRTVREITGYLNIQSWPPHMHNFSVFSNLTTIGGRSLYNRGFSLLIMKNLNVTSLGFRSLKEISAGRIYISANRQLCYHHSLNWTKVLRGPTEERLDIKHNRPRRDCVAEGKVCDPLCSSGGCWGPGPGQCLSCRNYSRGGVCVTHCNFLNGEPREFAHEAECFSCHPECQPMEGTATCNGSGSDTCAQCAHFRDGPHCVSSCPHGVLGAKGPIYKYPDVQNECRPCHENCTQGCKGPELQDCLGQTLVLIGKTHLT

B1: CL4 (structured_RNA)
RNA: GCCUUAGUAACGUGCUUUGAUGUCGAUUCGACAGGAGGC
modifications: 2'-fluoro pyrimidines
- Kd [1]: 10 nM
- binding result [2]: no binding
